Experimental data from US20230201361.

Test system: eighteen amino acid peptide containing the amino acid sequence PLGIA, covalently labeled with the same fluorophore near each end (HES structure)

Chain of matrix metalloprotease -9 (MMP-9) (chain, as listed by the source): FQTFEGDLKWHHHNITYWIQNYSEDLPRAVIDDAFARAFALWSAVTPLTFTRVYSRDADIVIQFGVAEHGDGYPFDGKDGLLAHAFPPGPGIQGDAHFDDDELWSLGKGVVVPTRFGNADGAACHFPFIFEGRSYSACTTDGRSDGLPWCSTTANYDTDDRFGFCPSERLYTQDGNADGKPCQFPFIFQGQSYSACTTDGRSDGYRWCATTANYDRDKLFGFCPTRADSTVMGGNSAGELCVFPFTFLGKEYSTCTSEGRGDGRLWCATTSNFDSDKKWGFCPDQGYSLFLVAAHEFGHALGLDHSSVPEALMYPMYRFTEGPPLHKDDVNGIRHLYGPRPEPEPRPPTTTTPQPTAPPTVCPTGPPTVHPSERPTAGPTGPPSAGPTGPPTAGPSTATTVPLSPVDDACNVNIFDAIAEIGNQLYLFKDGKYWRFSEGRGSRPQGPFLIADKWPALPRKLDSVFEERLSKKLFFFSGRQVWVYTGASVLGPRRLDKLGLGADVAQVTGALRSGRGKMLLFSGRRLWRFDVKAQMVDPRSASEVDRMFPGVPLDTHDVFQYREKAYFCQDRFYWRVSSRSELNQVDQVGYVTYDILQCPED

Question: Which results are given for matrix metalloprotease -9 (MMP-9)?
Answer: HPLC retention time (C18, reverse phase): After exposure to MMP-9, the major peaks were at ca. 30 and 31 minutes with the almost complete disappearance of the 38 minute peak; cleavage of the peptide: The PLGIA sequence was recognized by matrix metalloprotease -9 (MMP-9) and is cleaved between the LG and the IA
